Experimental data as given in the DeepSol protein solubility set.

assay: soluble on expression in E. coli; label from the status in PepcDB or PDB records

| Sequence | soluble on expression in E. coli |
| --- | --- |
| MGSDKIHHHHHHMPRITQEISYNCDYGDNTFNLAIDIGGTLAKVVFSPIHSNRLMFYTIETEKIDKFMELLHSIIKEHNNGCYRMTHIIATGGGAFKFYDLLYENFPQIKGISRFEEMEGLIHGLDFFIHEIPDEVFTYNDQDGERIIPTSSGTMDSKAIYPYLLVNIGSGVSILKVTEPNNFSRVGGSSLGGGTLWGLLSLITGAQTYDQMLDWAQEGDNSSVDMLVGDIYGTDYNKIGLKSSAIASSFGKVFQNRMTSNKSLENNENKLYSSHESIEKNNGQMFKNPDICKSLLFAISNNIGQIAYLQAKINNIQNIYFGGSYTRGHLTTMNTLSYAINFWSQGSKQAFFLKHEGYLGAMGAFLSASRHSSTKKTST | not soluble |
| MGSDKIHHHHHHATKTEQIPVNKTYAACPQNWIGVENKCFYFSEYPSNWTFAQAFCMAQEAQLARFDNQDELNFLMRYKANFDSWIGLHRESSEHPWKWTDNTEYNNTIPIRGEERFAYLNNNGISSTRIYSLRMWICSKL | not soluble |
| MSLQTQDIIRRSGTNSLTPPPQVRDHQEPVAKLIDVTTCIGCKACQVACSEWNDIRDEVGHNVGVYDNPADLTAKSWTVMRFSEVEDEESGKLEWLIRKDGCMHCADPGCLKACPSEGAIIQYANGIVDFQSEHCIGCGYCIAGCPFDVPRMNKDDNRVYKCTLCVDRVGVGQEPACVKTCPTGAIHFGTKESMKEVAAGRVAELKTRGFDNAGLYDPAGVGGTHVMYVLHHADKPQLYHGLPENPTISPTVTFWKGIWKPLAAVGFAATFAASIFHYVGVGPNRVEEEEEDDETTDPTPSETVAKAPEQTTSERSDEGETRK | not soluble |
| MGSDKIHHHHHHALSPETGSTSVAVMGRQLYEEMRLDQWVCFDAFMQGLRGSEKIDRKNKDILTLIDFSKPSTAERMVVLDIRQKRILYTSLVSHGKNSGGNYATSFSNENGSHKSSLGFYLTENTYQGRNGYSLILNGLEKGINDLAKQRAIVIHGASYSDPSVAASSGRLGRSFGCPALPVSVSKPIINTIKNGTLLFIYANDKNYLTQSSILSTQQENDIFHEKSYRKVL | not soluble |
| MAGKCVFIVGAKRTAFGTFGGKLKGLSATDLGVVASQAALKHANVGADAVDHVIFGNVVASSRDGIYLSRHIGLKSGVPQNVGALTVNRLCGSGFQAVVNAAQAIKLGESNIVLAGGTENMSMVPFAVRDIRFGTALGKKYEFEDMLWDSLSDPYAKLAMGQTAEKLGAQYKVTRQEADEFALRSQTLWKKAQEAGVYKNEIVGITIKGRKGEESFEIDEHPRATTAESLAKLKPVFQKDGLVNAGNASGISDGAAALVVAGEDSVKSKNLKPLARVVAYSAVGCDPTIMGIGPAPAIREVLKKSGLKIGDIDIFEVNEAFAPQALAVQRELGIPMEKLNVNGGAIALGHPLAASGARISTHIVHELHRRNVKYGIGSACIGGGQGIAILFEKIEMKVLSKKKFFSEKNQKSANTSTQSRVSDANSPPPPPPHFTRSFLGL | soluble |
| MSLRITGERIYLRPFQIIDANQKLAFHLANKAFFEGYSMERDDRFYTIEEQQSLISRLEDFAASDVEYYYGIFLNDTDELIGTINLFSILRESLQSAFIGYFLDKKHNGNGYATEAVQLIVDFGFDILGLHRIEAGVMPKNERSKQVLLKAGFHLEGLAVQNVRINGTWEDHQVLAIINPGDEGHHHHHH | soluble |
| MTDEQRSGSRRRGGALGGGRGGNSQNSGRKRSSNSPADSASSSQKTSRNPSQNRPPMNIVPQKVTILKRNQDSQPTSPINRNAPPGPLVAAVQPLMAVELGDSGASLKGWNSNPTTPEKTTINVAGRQAEANKKQTQEYYFSKNAGSAVSAQTFQETVQYPMSSFPLEKNVPIQIDNNFTLLITPTTSKCNGLFIKVKLQHGDDNITTGALLKLDADEKTIRKSCRETIENLLKAKSSSDRFPFSKCSEGFLTSCLIKKLVDRLEAFPEAIYYCEKCDYHINTIGHAKAHLESSTHFDDVKRQEQREHLLKIIPPPTEAHLESVEKVLEGTLKSYQQVRQNGIEIGETIIYYLSTTVFPSIGLQDVILRPFGSVTYDVTLPDSDYNVAYTMSIPEGTPIFALLEQVRKKIADDGHPADHSMEMGTPSTIIFTFKGVRVKLCWMSCFNHRIQLHFSELMKTYVNLREEVAQFLQLIRLWATKAGLDSKNKPRIGLPRYGFDIMAIHFLQQIGCLPVLHELFEAGPETEKIEEMSAEKTAKLQSEEAGQRRMRLMSRYEKNTEKIGTKFDLKKSWNLAELFIGFFRYYVERHRDVVIQITQLIPMSRDVSRWNKKILHVVDPFRGDNVLSIPKVSTWQPFFFNCLLTSFVSFSIPRTKNGPLIEVSFVHNKTIKPGKKFKDTPKKATVEAPIPLTQIMEEHYQEPVYEIVNDKDHLKYMKELKERLMIDGILVNERKPIDYHTDDHRECVYGRNSLLRFKRVLKPGLNGKMAASMDGLSFVTKKGKKFINRWKKANVIILSEDSSEIDEKTKAADSNVSEIAEKLEETLKISSQKNIDVAVTSMPVSTEIKPEPITKLSNEAPVKIKNVAQPQCDLIEAPQESLMNESMMESSFDETESPMKTPIVQKPVKQNATFGKSTISTVIPDKQFCSEEFFIKLNSNLKDIVSKSKSLKPSDFHYEFSTDLFCGDFEMEMKCTHCDGSHCVENCPMMEIPPIKKYQARTPEDLKDIDDMIDKYYHENILDERRLKMLDHKIDELQSFLRKNYREDVTLTTFGSVMTGLSVNCSDIDICLRFGDGDVPPKDLTAKEVIQKTESVLRKCHLVKRVQAIVTAKVPIVKFQVKLSNGAIIDVDISYYNILAIYNTALLKEYSLWTPDKRFAKLALFVKTWAKNCEIGDASRGSLSSYCHVIMLISYLQNCDPPVLPRLQEDFRSDNRERRLVDNWDTSFAQVETSLLQRWPKNKESCAQLLIGYFDYYSRFDFRNFVVQCRREMILSKMEKEWPRPLCVEDPFDLSHNLSSGVNKKMFVFIMKVFINSRAVFMSEKPPMNRDHTFLSSYQHQLLRKCNQGSAPTDRQCHQCHRIGHFVESCPQRALAKEARKRFGSNSTNSSYRSNDSGRGFKNGEEGGDRLTYHKRTYYHRSYNK | not soluble |
| MGSDKIHHHHHHMNYLVISPFYPENFQPFTIELAKKEGVTVLGIGQEPYDQLPEELRNALTEYFRVEDLENIDEVKRAAAFLIYKHGPIDRVESHNEYWLENDAALREQFNIFGAKPKHLKKTKFKSEMKKYFKKAGVPVVPGVVVKSERDFGRALKNVGFPMIAKPDNGVGASGTFKIENKEDFDRFVETWDGATIYFLEKFVNSSIITTYDGLLDHEGNVVFETGLTYVHTPLELMLSRKDNAYFIEKELDPQLVKYGRAIIKAFGMRERFFHIEFFKDGDDYIAIEYNNRMAGGFTVEAYNYAHSIDLFRDYANVATGGTVEERRFEPQYCLVATRRDTTEYVHSADDIHQKFAGKIKTVKRMPDAFAELQGNDAYLLVTESKKELDEMIAYIGLTK | not soluble |
| MPKSLSLQDVQLRFSSKFPDKTVLKFTKNYEPVTIQCPLHGSVVYGNLQAAMKSSTGCPECTRNPEKPSPNAVAIRLEDTETGEIYEFASTLAASKFIGCSNSTLAVRLSGRTPFDRLIRYRYRLVK | not soluble |
| IEVAAIQGNVPRMGLDFNAQRRAVLANHARETLKLDEQVDLVIWPENSSDVNPFSDAQARAIIDGAVEHVQAPILVGTITVDEVGPRNTMQVFDPVEGAAEYHNKKFLQPFGEYMPFREFLRIFSPYVDSAGNFQPGDGTGVVEMNAANLGRAVTVGVMTCYEVIFDRAGRDAIANGAEFLTTPTNNATFGFTDMTYQQLAMSRMRAIEFDRAVVVAATSGVSAIVNPDGSISQNTRIFEAATLTESIPLKDTVTIAARVGFY | not soluble |
| MAYRDRGMQKWQGMILSEHTEQLEQAKRKLSWLPQQSEECLVEILSYAVTKQHAITIQRLTEDENGYPLPFVVGRIVGVEDDRIYMRDMAGEITVLTFDDINHISEGTIEKWYR | not soluble |
| PKPPIDLVVTETTATSVTLTWDSGNSEPVTYYGIQYRAAGTEGPFQEVDGVATTRYSIGGLSPFSEYAFRVLAVNSIGRGPPSEAVRARTGEQ | soluble |
| MAHHHHHHSLTQQYLTVTALTKYLKRKFDADPYLGRVYLTGEISNFRFRANAHQYFSLKDDHAKISAIMFKSAFQKLKFQPKEGMKVMVVGRISLYENSGSYQIYIEHMEPDGVGALYQALAELREKLGKEGLFEGPKQQLPRYPKRIAVVTSPSGAVIRDIITTVKRRYPIAQLVLFPTLVQGEQAADDIVRNIQRADAQSDFDTMIIGRGGGSIEDLWPFNEEKVARAIHAATTPIISSVGHETDVTIADMVADVRAATPTAAAELAVPVLNEELLRISERRSRLEQSFLYLLQQRTERFQRLQNSYVFKQPERLYEGQTIKLDRMTQRLFQAMTTIHHQKQRQAQGIIAQLQQQTPKGQLRESQQQLAFLQRNLQTQMTQLFLNKQKQFTSAVQQLDLLSPLKIMGRGYSYTTKEDRVVKTVTELQPADQLTIHYADGTVQANVETITAKKEEFEG | soluble |
| MGSDKIHHHHHHMTAKTFELGPGYTISRVIRGGWQLAGGHGAIDRSQAVTDLIATFDAGIWTYDCADIYTGVEELIGAARLRLASERGLDVAAKMKVHTKLVPDLERLATISRDYIRGIVEQSLRRLKTERLDLVQFHWWDYDQPRYVEAMGWLDELRREGKVRNLGTTNFDTPRLAEILAAGIPLVSQQLQYSVLDQRPAHSLAELAAKNGVSFLCYGSVAGGFLSDKWLGVAEPATPLENRSLVKYKLIIDDFGGWDLFQQLLQALKAVGDRHGVDIATIASAWVLKQPRVAAVIVGARNQAHALANARIMDVALDADDRAKIAAVIAQSQGPLGDVYTLERDRHGRHGSIMHYNLNAGRT | not soluble |
| MEGPLTIPVLDKGFVRLVDQMGDDRAIVQAARVSYGEGTKTVREDAALIDYLMRHRHTSPFEMVVFKFHVKAPIFVARQWFRHRTASVNEISGRYSILKEEFYEPEAFRKQAKRNKQASEGALLDEEALALLRKVQQEAYGAYRALLEKGVAREMARMVLPLNLYTEFYWKQDLHNLFHFLKLRLAPEAQWEIRQYARAIAEIVKERVPLAWAAFEEHLLEGAFLSRTELRALRGLLTPEVYEKALSSLGLGGSRLKEALEKVFGPGEAL | soluble |
| MIESNHVVLWNRCLEVIKDNVPETTYNTWFAPIVPLKYEDKTLIVQIPSQFFYEILEEKFVDLLRKTLYKAIGEGTKLMYNVMVDKTSIPNQTVNLEASNRSTAVTPKSIVGGNKAPSFLKAPAVQDLDPHLNPNYNFENFIEGYSNKLSRSVAEAVAQNPAGTAFNPLFLYGASGVGKTHLANAIGTKIKELYADKRVLYVSAHLFQVQYTDSVRNNTTNDFINFYQTIDVLIIDDIQEFAGVTKTQNTFFHIFNHLHQNGKQLILTSDRAPVLLQGMEERLLTRFKWGMVAELEKPTVELRKNILRNKIHRDGLQFPPEVIDYIAENVNESVRDLEGIVIAIMARSTIFNKEIDLDLAQHIVHGVVHNETKAVTIDDILKVVCKHFDLEASAIHTKSRKREVVQARQIAMYLAKNYTDFSTSKIGKFIGNKDHATVLHACKTVKGQLEVDKSFQAEVQEIESLLKKKALEHHHHHH | soluble |
| MRGSHHHHHHGAGDRGPEFPEESSPRRTPQSIPYQDLPHLVNADGQYLFCRYWKPTGTPKALIFVSHGAGEHSGRYEELARMLMGLDLLVFAHDHVGHGQSEGERMVVSDFHVFVRDVLQHVDSMQKDYPGLPVFLLGHSMGGAIAILTAAERPGHFAGMVLISPLVLANPESATTFKVLAAKVLNLVLPNLSLGPIDSSVLSRNKTEVDIYNSDPLICRAGLKVCFGIQLLNAVSRVERALPKLTVPFLLLQGSADRLCDSKGAYLLMELAKSQDKTLKIYEGAYHVLHKELPEVTNSVFHEINMWVSQRTATAGTASPPLEVDLQGDHGLSAWSHPQFEK | soluble |
| MESQVRQNFHQDCEAGLNRTVNLKFHSSYVYLSMASYFNRDDVALSNFAKFFRERSEEEKEHAEKLIEYQNQRGGRVFLQSVEKPERDDWANGLEALQTALKLQKSVNQALLDLHAVAADKSDPHMTDFLESPYLSESVETIKKLGDHITSLKKLWSSHPGMAEYLFNKHTLG | soluble |
